Assay results from patent US20260042834A1, “ANTI-CORTICOTROPIN-RELEASING HORMONE ANTIBODIES AND POLYCYSTIC OVARY SYNDROME” (HBM ALPHA THERAPEUTICS, INC., priority 2022, published 2026).
Where a chain is given by its changes, count along the chain named. Read-outs that look alike come from different tables or passages of the source.

T1: biotinylated CRH (Homo sapiens, UniProt P06850)
T1 construct: purchased GL Biochem 784751
T1 sequence (P06850 154-194): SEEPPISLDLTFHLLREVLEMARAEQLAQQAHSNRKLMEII

B1: PR302038: humanized variant of Series 5 mAb PR301777; VH SEQ ID NO: 256, VL SEQ ID NO: 311 (antibody, V domains shown)
VH: EMQLVESGGGLVQPGGSLRLSCAASGFTFSNYWMNWVRQAPGKGLEWVAEIRLKSNNYATHYAESVKGRFTISRDDSKSSVYLQMNSLKTEDTAVYYCTVGTLVYWGQGTLVTVSS
VL: EIVLTQSPATLSLSPGERATLSCRASQSVSTSTYNYMHWFQQKPGQAPRLLIKFASNLESGIPARFSGSGSGTDFTLTISSLEPEDTAVYYCQHSWEIPYTFGQGTKLEIK
modifications: PR302036 VH, PR302038 VH, PR302041 VH; PR302031 VL, PR302038 VL, PR302045 VL, PR302052 VL, PR302066 VL
B2: PR302309-8: humanized variant of Series 7 mAb PR302309; VH SEQ ID NO: 261, VL SEQ ID NO: 318 (antibody, V domains shown)
VH: QIQLVQSGSELKKPGASVKVSCKASGYTFTNYGMNWVRQAPGQGLEWMGWINTYTGEPIYTDDFKGRFVFSLDTSVSTAYLQISSLKAEDTAVYYCSRSTMITTGGVFAYWGQGTLVTVSS
VL: DVVMTQSPLSLPVTLGQPASISCRSSQTIVHSDGNTYLEWYQQRPGQSPRLLIYKVSNRFSGVPDRFSGSGSGTDFTLKISRVEAEDLGVYYCFQGSHVPWTFGGGTKVEIK
modifications: PR302309-10 VH, PR302309-11 VH, PR302309-12 VH, PR302309-14 VH,PR302309-7 VH, PR302309-8 VH, PR302309-9 VH; PR302309-17 VL, PR302309-18 VL, PR302309-19 VL, PR302309-2 VL,PR302309-8 VL
B3: PR302309-11: humanized variant of Series 7 mAb PR302309; VH SEQ ID NO: 261, VL SEQ ID NO: 315 (antibody, V domains shown)
VH: B2 VH
VL: B2 VL with V2I, S7T, L11S, Y41L, S48P, S72A, L88V
modifications: PR302309-10 VH, PR302309-11 VH, PR302309-12 VH, PR302309-14 VH,PR302309-7 VH, PR302309-8 VH, PR302309-9 VH; PR302309-11 VL, PR302309-5 VL

Legend:
[1] = tested on: human CRHR2; assay: CRH-induced luciferase reporter blocking assay, CHO-CRE-hCRHR2 cells; format: cell-based; settings: CHO-CRE-hCRHR2 cells, 0.1 nM CRH
In short: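 CHO-CRE reporter cells stably expressing mouse or human CRHR2 were treated with serially diluted antibodies (8 points, 1:4) plus CRH at final 5 nM (mCRHR2) or 0.1 nM (hCRHR2), 4-6 hours at 37° C. CRE-driven luciferase read by luminescence after 10 min with detection reagent.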

[2] = tested on: mouse CRHR2; assay: CRH-induced luciferase reporter blocking assay, CHO-CRE-mCRHR2 cells; format: cell-based; settings: CHO-CRE-mCRHR2 cells, 5 nM CRH
In short: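 CHO-CRE cells stably expressing mouse CRHR2 were seeded overnight, then given serially diluted antibodies (8 points, 1:4) together with CRH at 5 nM final. After 4–6 h at 37 °C, CRE-driven luciferase was read by Bio-Glo luminescence.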

[3] = tested on: constitutively high plasma ACTH in Mrap1 KO mice; assay: Mrap1 KO mice constitutively high ACTH model; format: in vivo, mouse; settings: 20 mg/kg and 5 mg/kg, day 2 and day 16
Procedure: 8-10 week old wildtype female C57BL/6 mice were obtained from Charles River Laboratories. Mrap1 KO mice were obtained from Queen Mary University of London, UK. SSR125543A, a small molecule CRHR1 antagonist, was obtained from Axon Medchem (Cat #Axon 1799). Mouse Corticosterone (55-Corms-E01) and adrenocorticotropic hormone (ACTH) ELISA kits (21-ACTHU-E01) were obtained from ALPCO, USA. All procedures were carried out in accordance with the Guide for the Care and Use of Laboratory Animals of the National Institutes of Health. Protocols were approved by Charles River Laboratories Institutional Animal Care and Use Committee (IACUC).
To generate Mrap1 KO mice, Mrap1−/− male mice were bred with Mrap1+/− female mice. Corticosterone hormone replacement was performed by administering 50 μg/ml in drinking water to breeder cages when female mice were pregnant and their pregnancies palpable (approximately embryonic day 10). Drinking water was changed weekly, and treatment was stopped at weaning. Mice were uniquely identified with ear tags at the time of tail clipping to match future genotype with each mouse. DNA was extracted from tail tissue and used to genotype mice.
[…] On day 2 or 3, 14 and 28, 200 μl of blood was collected in EDTA tubes from the submandibular vein of each mouse. Plasma was separated using a refrigerated centrifuge (4° C. at 500×g for 10 min) and snap-frozen in dry ice for subsequent ACTH ELISA measurement.

[4] = tested on: human CRHR1 (hUCN1-induced); assay: Human UCN1-induced luciferase reporter assay, CHO-CRE-hCRHR1 cells; format: cell-based; settings: Table 10; 1 nM hUCN1
Procedure: CHO-CRE-hCRHR1 and CHO-CRE-hCRHR2 cells were harvested with trypsin-EDTA (Life Technologies, Cat #:12604-013). Cells were centrifuged at 1,000 rpm for 5 min and resuspended in growth medium. Cells were counted using a cell counter, seeded at 5,000 cells per 100 μl to 96-well flat plates, and incubated overnight. 50 μl of 4× serially diluted antibody (8 points, 1/3 diluted by growth medium) or CP 376395 hydrochloride (TOCRIS, Cat #:3212) (8 points, 1/10 diluted by growth medium) was added to plates, followed by 50 μl 4×hUCN1 (4× is 4 nM, final is 1 nM) to CHO-CRE-hCRHR1 cells or CHO-CRE-hCRHR2 cells. Plates were then incubated for 4-6 hours at 37° C. in a CO2 incubator. Following this, 60 μl of culture medium was removed, to which was added 60 μl of Bio-Glo luciferase, followed by incubation for 10 min at RT. Plates were then read in a luciferase plate reader (EnVision, PerkinElmer).

[5] = target: T2, N-terminal region plus central region, central region only, central region plus C-terminal region of CRH (Homo sapiens, UniProt P06850); assay: ELISA determining the binding region of CRH; settings: dash = no binding
T2 construct: N-terminal region plus the central region (CT biotin), the central region only (NT biotin or CT biotin)
Procedure: Streptavidin (Thermo, Cat: 21125) was diluted in PBS to a concentration of 2 μg/ml. 100 μl of diluted streptavidin was added per well to ELISA microplates, and the plates were incubated overnight at 4° C. Plates were blocked with ELISA blocking solution (containing 2% w/v BSA, 0.05% (v/v) Tween-20, pH 7.4 PBS buffer) at 37° C. for 1 hour, and then incubated with 1 μg/mL N-terminal region plus the central region (CT biotin), the central region only (NT biotin or CT biotin), or the central region plus C-terminal region (NT biotin) of CRH for 1 hour at 37° C. Plates were then washed and incubated with diluted anti-CRH antibody (Ab) at 15 μg/ml (100 nM, 10 diluted, 8 points) for 1 hour at 37° C. Subsequently, plates were washed and incubated with HRP-conjugated goat anti-human IgG (H+L) antibody (Jackson, Cat: 109-035-088) at 37° C. for 1 hour. 100 μL of 3,3′,5,5′-tetramethylbenzidine (TMB) substrate (Biopanda, Cat: TMB-S-003) was added, and the plates were incubated at room temperature for 15 minutes. 100 μL of ELISA stopping solution (Solarbio, Cat #: C1058) was added to terminate the reaction, and the optical density at 450 nm (OD450 nm) was determined by an ELISA plate reader (Molecular Devices, Spectra max 384 plus).

[6] = target: T1, biotinylated CRH; assay: Affinity determination with Octet; format: binding
Procedure: Octet® Red 96e was used for affinity measurement. Octet® running buffer was prepared by diluting kinetics buffer 10× (Fortebio, Cat #18-1105) in PBS according to the manufacturer's instructions. Two columns of SA sensors (Fortebio, Cat #18-5019) were hydrated in running buffer for 10 mins, one for ligand capturing and the other for reference. Antibodies were 2-fold diluted and added into a 96-well plate. 30 nM biotinylated CRH (GL Biochem, Cat #784751) was captured by the first column of SA sensors for 20 seconds, while reference sensors were dipped into buffer wells. After a 60-second baseline step, sensors were dipped into analyte and buffer wells successively, with the association and dissociation time of 180 seconds and 800 seconds, respectively. Sensors were regenerated in glycine pH1.5 (Cytiva, Cat #BR-1003-54) before the next cycle. […] Signals of reference wells and reference sensors were subtracted by selecting “Double reference” before data fitting.

[7] = central plus C-terminal region CRH peptide, NT-biotin (SEQ ID NO: 483), read-out: ELISA EC50 C-Ter-CRH (NT-Bion)
[8] = central region CRH peptide, CT-biotin (SEQ ID NO: 485), read-out: ELISA EC50 Central-CRH (CT-Bion)
[9] = central region CRH peptide, NT-biotin (SEQ ID NO: 484), read-out: ELISA EC50 Central-CRH (NT-Bion)

Row | Molecule | IC50 [1] [nM] | IC50 [2] [nM] | plasma ACTH concentrations in Mrap1 KO mice, dose dependence [3] | CHO-CRE-hCRHR1 1 nM hUCH1 IC50 [4] | EC50 [5, 7] [nM] | EC50 [5, 8] [nM] | EC50 [5, 9] [nM] | kdis [6] [s⁻¹] | kon [6] [M⁻¹ s⁻¹]
1 | B1 | 5.96 | 6.17 | reduced plasma ACTH concentrations in Mrap1 KO mice, in a dose dependent manner | – | – | – | – | – | –
2 | B2 | – | – | – | No Inhibition | > 100 | > 100 | > 100 | 0.000136 | 266000
3 | B3 | – | – | – | No Inhibition | > 100 | > 100 | > 100 | – | 154000
